This note sets out measurements from patent US10702592B2, “Peptides and combination of peptides for use in immunotherapy against NHL and other cancers” (Immatics Biotechnologies GmbH, priority 2016, dated 2020).

For this assay, the target named is HLA-A*02:01 (Homo sapiens, UniProt P04439, D140Y/D185E/D98H/E176V/E277Q/G131W/G231S/I119V/I121R/I166T/I218V/L300P/L318F/N151K/N90K/P208A/P217A/Q86G/Q94H/R138H/R169H/T345S). The assay is described as follows: MHC binding assay (UV-ligand exchange, beta2m ELISA). As to conditions: binding to HLA-A*02:01, UV-ligand exchange. The gist of the method: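 Exchange yield, UV-ligand exchange: 100-fold diluted samples on streptavidin plates, 1 h at 37 °C; HRP anti-β2m 1 h at 37 °C; TMB read at 450 nm.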
With “187 (FLNSFVFKM; listed as Homo sapiens) [compound 187]”, the “Peptide exchange (MHC class I binding score, peptide exchange yield)” value (shortened to “Peptide exchange”) is ““++” (≥20% = ++)”. For the substance “188 (GLEDEMYEV; listed as Homo sapiens) [compound 188]”, the “Peptide exchange” value is listed as ““++” (≥20% = ++)”. In the case of “189 (SLSHLVPAL; listed as Homo sapiens) [compound 189]”, the “Peptide exchange” value is ““+++” (≥50 = +++)”. As to “190 (GLIELVDQL; listed as Homo sapiens) [compound 190]”, the “Peptide exchange” value was ““+++” (≥50 = +++)”. Regarding “191 (GLSDISAQV; listed as Homo sapiens) [compound 191]”, the “Peptide exchange” value is ““+++” (≥50 = +++)”.

As for “192 (GMAAEVPKV; listed as Homo sapiens) [compound 192]”, the “Peptide exchange” value was ““++” (≥20% = ++)”. As for “193 (SLADSMPSL; listed as Homo sapiens) [compound 193]”, the entry is ““++” (≥20% = ++)”; as for “194 (SLAPFDREPFTL; listed as Homo sapiens) [compound 194]”, ““++” (≥20% = ++)”. Consider “195 (ALIPDLNQI; listed as Homo sapiens) [compound 195]”, for which the “Peptide exchange” value was ““+++” (≥50 = +++)”.

For the substance “197 (YLLTDNVVKL; listed as Homo sapiens) [compound 197]”, the “Peptide exchange” value is reported as ““++” (≥20% = ++)”. As for “198 (GLLSAVSSV; listed as Homo sapiens) [compound 198]”, the “Peptide exchange” value is on record as ““+++” (≥50 = +++)”. For “199 (SLNSTTWKV; listed as Homo sapiens) [compound 199]”, the “Peptide exchange” value was ““+++” (≥50 = +++)”. On to “200 (YLLDFEDRL; listed as Homo sapiens) [compound 200]”, for which the “Peptide exchange” value is reported as ““++++” (≥75% = ++++)”.

Turning to “201 (YLNISQVNV; listed as Homo sapiens) [compound 201]”, the “Peptide exchange” value is ““+++” (≥50 = +++)”.

Consider “202 (ALAAGGYDV; listed as Homo sapiens) [compound 202]”, for which the “Peptide exchange” value is on record as ““++” (≥20% = ++)”.

For the substance “203 (ILDTIFHKV; listed as Homo sapiens) [compound 203]”, the “Peptide exchange” value is given as ““+++” (≥50 = +++)”. As for “204 (RLCDIVVNV; listed as Homo sapiens) [compound 204]”, the entry is ““++” (≥20% = ++)”. Consider “205 (TLFYESPHL; listed as Homo sapiens) [compound 205]”, for which the “Peptide exchange” value was ““+++” (≥50 = +++)”. In the case of “206 (SAVSGQWEV; listed as Homo sapiens) [compound 206]”, the “Peptide exchange” value is given as ““++” (≥20% = ++)”. With “207 (GLVGLLEQA; listed as Homo sapiens) [compound 207]”, the “Peptide exchange” value is recorded as ““++++” (≥75% = ++++)”. As for “208 (FLAVSLPLL; listed as Homo sapiens) [compound 208]”, the “Peptide exchange” value is ““+++” (≥50 = +++)”.

With “209 (FLLDTISGL; listed as Homo sapiens) [compound 209]”, the “Peptide exchange” value is ““+++” (≥50 = +++)”. Consider “210 (FLAEQFEFL; listed as Homo sapiens) [compound 210]”, for which the “Peptide exchange” value is listed as ““+++” (≥50 = +++)”.

Take “211 (FIDDLFAFV; listed as Homo sapiens) [compound 211]”: the “Peptide exchange” value is given as ““+++” (≥50 = +++)”.

Regarding “212 (FLIGQGAHV; listed as Homo sapiens) [compound 212]”, the “Peptide exchange” value is ““+++” (≥50 = +++)”. With “213 (YINEDEYEV; listed as Homo sapiens) [compound 213]” the entry was ““++” (≥20% = ++)”.

Consider “214 (FLFDGSMSL; listed as Homo sapiens) [compound 214]”, for which the “Peptide exchange” value is given as ““+++” (≥50 = +++)”. In the case of “215 (QLFEEEIEL; listed as Homo sapiens) [compound 215]”, the “Peptide exchange” value was ““++” (≥20% = ++)”. For the substance “216 (KVVSNLPAI; listed as Homo sapiens) [compound 216]”, the “Peptide exchange” value is given as ““++” (≥20% = ++)”.

For “217 (AQFGAVLEV; listed as Homo sapiens) [compound 217]”, the “Peptide exchange” value is listed as ““+++” (≥50 = +++)”.

Take “218 (ALDQFLEGI; listed as Homo sapiens) [compound 218]”: the “Peptide exchange” value is given as ““+++” (≥50 = +++)”. For the substance “219 (ALLELENSV; listed as Homo sapiens) [compound 219]”, the “Peptide exchange” value was ““++” (≥20% = ++)”.

Take “220 (FLAEAPTAL; listed as Homo sapiens) [compound 220]”: the “Peptide exchange” value is listed as ““++” (≥20% = ++)”. As for “221 (FLAPDNSLLLA; listed as Homo sapiens) [compound 221]”, the entry is ““++++” (≥75% = ++++)”; as for “222 (FLIETGTLL; listed as Homo sapiens) [compound 222]”, ““+++” (≥50 = +++)”; as for “223 (FLQDIPDGLFL; listed as Homo sapiens) [compound 223]”, ““++” (≥20% = ++)”. As for “224 (FLSPLLPLL; listed as Homo sapiens) [compound 224]”, the entry is ““++” (≥20% = ++)”; as for “226 (GVIDPVPEV; listed as Homo sapiens) [compound 226]”, ““++” (≥20% = ++)”; as for “227 (IIAEGIPEA; listed as Homo sapiens) [compound 227]”, ““++” (≥20% = ++)”. “228 (IIAEYLSYV; listed as Homo sapiens) [compound 228]”: the “Peptide exchange” value is listed as ““++” (≥20% = ++)”. With “229 (ILSPWGAEV; listed as Homo sapiens) [compound 229]”, the “Peptide exchange” value is recorded as ““++++” (≥75% = ++++)”. For “230 (IMDDDSYGV; listed as Homo sapiens) [compound 230]”, the “Peptide exchange” value was ““++” (≥20% = ++)”. For “231 (IVMGAIPSV; listed as Homo sapiens) [compound 231]”, the “Peptide exchange” value is on record as ““+++” (≥50 = +++)”.

Regarding “232 (KVMEGTVAA; listed as Homo sapiens) [compound 232]”, the “Peptide exchange” value is ““++” (≥20% = ++)”. As for “233 (MLEVHIPSV; listed as Homo sapiens) [compound 233]”, the entry is ““+++” (≥50 = +++)”; as for “234 (NLQRTVVTV; listed as Homo sapiens) [compound 234]”, ““++” (≥20% = ++)”; as for “235 (SLDVYELFL; listed as Homo sapiens) [compound 235]”, ““+++” (≥50 = +++)”. With “236 (SLFDGFFLTA; listed as Homo sapiens) [compound 236]” the entry was ““++++” (≥75% = ++++)”; with “237 (YLDRLIPQA; listed as Homo sapiens) [compound 237]”, ““+++” (≥50 = +++)”. As for “238 (YQYGAVVTL; listed as Homo sapiens) [compound 238]”, the “Peptide exchange” value is ““+++” (≥50 = +++)”. Regarding “239 (VLIDDTVLL; listed as Homo sapiens) [compound 239]”, the “Peptide exchange” value is ““+++” (≥50 = +++)”. “240 (ALVPTPALFYL; listed as Homo sapiens) [compound 240]”: the “Peptide exchange” value is ““+++” (≥50 = +++)”. Consider “241 (FIPDFIPAV; listed as Homo sapiens) [compound 241]”, for which the “Peptide exchange” value is given as ““++” (≥20% = ++)”. As for “242 (GILDFZVFL; listed as Homo sapiens) [compound 242]”, the entry is ““++++” (≥75% = ++++)”; as for “243 (GLPDLDIYL; listed as Homo sapiens) [compound 243]”, ““++++” (≥75% = ++++)”; as for “244 (ILEPFLPAV; listed as Homo sapiens) [compound 244]”, ““+++” (≥50 = +++)”. With “245 (KLIQLPVVYV; listed as Homo sapiens) [compound 245]”, the “Peptide exchange” value is ““+++” (≥50 = +++)”.

As for “246 (KLPVPLESV; listed as Homo sapiens) [compound 246]”, the “Peptide exchange” value was ““+++” (≥50 = +++)”. For the substance “247 (KVLEMETTV; listed as Homo sapiens) [compound 247]”, the “Peptide exchange” value was ““+++” (≥50 = +++)”. Turning to “248 (NLLEQFILL; listed as Homo sapiens) [compound 248]”, the “Peptide exchange” value was ““+++” (≥50 = +++)”. With “249 (VLLESLVEI; listed as Homo sapiens) [compound 249]”, the “Peptide exchange” value is ““++++” (≥75% = ++++)”.
